Data from paper PMC2894052.

Target: recombinant Dnmt1 protein (Dnmt1^R), not treated with a kinase (human) (UniProt P26358)
Sequence of UniProt P26358 (P26358 whole entry): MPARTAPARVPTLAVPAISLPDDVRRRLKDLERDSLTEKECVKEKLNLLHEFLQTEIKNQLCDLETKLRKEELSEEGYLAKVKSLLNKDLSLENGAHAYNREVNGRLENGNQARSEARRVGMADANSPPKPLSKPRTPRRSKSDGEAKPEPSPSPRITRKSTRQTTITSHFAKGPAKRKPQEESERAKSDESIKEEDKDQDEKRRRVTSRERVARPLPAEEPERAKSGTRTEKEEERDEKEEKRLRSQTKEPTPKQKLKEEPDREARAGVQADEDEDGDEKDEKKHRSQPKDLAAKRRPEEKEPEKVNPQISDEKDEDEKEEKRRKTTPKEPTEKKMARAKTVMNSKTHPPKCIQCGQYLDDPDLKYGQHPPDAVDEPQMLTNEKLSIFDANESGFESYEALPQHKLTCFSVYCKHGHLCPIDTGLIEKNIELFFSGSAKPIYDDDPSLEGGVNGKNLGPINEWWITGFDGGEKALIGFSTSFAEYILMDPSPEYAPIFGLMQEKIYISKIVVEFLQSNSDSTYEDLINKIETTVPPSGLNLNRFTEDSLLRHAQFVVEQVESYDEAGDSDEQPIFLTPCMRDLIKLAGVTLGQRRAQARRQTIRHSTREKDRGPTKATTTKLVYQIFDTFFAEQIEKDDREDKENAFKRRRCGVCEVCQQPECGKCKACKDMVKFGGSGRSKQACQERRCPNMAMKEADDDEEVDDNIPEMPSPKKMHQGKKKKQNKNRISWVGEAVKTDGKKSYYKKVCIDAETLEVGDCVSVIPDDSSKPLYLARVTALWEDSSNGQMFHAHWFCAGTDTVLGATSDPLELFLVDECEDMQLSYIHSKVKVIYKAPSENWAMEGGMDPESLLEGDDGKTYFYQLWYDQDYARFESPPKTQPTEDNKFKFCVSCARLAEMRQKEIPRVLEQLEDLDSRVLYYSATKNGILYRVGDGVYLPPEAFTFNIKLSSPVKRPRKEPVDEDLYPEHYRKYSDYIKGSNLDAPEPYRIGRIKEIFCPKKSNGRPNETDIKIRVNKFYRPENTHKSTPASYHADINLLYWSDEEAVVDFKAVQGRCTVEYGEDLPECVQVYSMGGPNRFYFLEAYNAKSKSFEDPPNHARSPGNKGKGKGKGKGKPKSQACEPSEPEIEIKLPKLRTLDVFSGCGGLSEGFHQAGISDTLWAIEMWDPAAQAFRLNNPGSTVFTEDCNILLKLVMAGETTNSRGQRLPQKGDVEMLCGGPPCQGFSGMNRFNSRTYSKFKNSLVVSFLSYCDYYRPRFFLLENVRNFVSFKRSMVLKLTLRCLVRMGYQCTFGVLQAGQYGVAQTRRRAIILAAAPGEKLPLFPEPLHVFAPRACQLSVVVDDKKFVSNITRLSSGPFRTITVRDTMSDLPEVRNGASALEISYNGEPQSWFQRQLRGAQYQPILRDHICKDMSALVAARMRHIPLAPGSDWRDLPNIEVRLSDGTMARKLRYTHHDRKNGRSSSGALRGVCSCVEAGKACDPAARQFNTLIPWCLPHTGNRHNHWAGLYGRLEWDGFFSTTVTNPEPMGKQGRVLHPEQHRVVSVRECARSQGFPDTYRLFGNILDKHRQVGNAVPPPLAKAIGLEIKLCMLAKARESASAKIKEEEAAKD

Row | mMTase activity (DMB assay, incorporation of 3H-radiolabelled methyl groups) of Dnmt1 with an equimolar quantity of UHRF1, against that of pDnmt1^S127/S143 and pDnmt1^S127 | mMTase activity (DMB assay, incorporation of 3H-radiolabelled methyl groups) of Dnmt1 with an equimolar quantity of PCNA, against that of pDnmt1^S127/S143 and pDnmt1^S127 | Substance
1 | 4 fold | – | GST-UHRF1 (from UniProt Q96T88 1-793) (natural protein)
2 | – | 5 fold | GST-PCNA (from UniProt P12004 1-261) (natural protein)
